# Test results: paper PMC5408348, “The biochemical properties of the two Arabidopsis thaliana isochorismate synthases” (Biochemical Journal, 2017)
# Legend:
# [1] = substrate: C=C(O[C@@H]1C=C(C(=O)O)C=C[C@H]1O)C(=O)O; assay: coupled fluorimetric assay with PchB (salicylate formation); assay type: biochemical, Arabidopsis thaliana; conditions: 100 mM Tris-HCl pH 7.7, 10 mM MgCl2, 30°C, 1 µM His6-PchB, 100 nM enzyme
# Text: coupled fluorimetric assay with PchB (salicylate formation) on AtICS1 (His6-AtICS1, ICS1)
# [2] = substrate: C=C(O[C@@H]1C=C(C(=O)O)C=C[C@H]1O)C(=O)O; assay: as above; assay type: biochemical, Arabidopsis thaliana; conditions: 100 mM Tris-HCl pH 7.7, 10 mM MgCl2, 30°C, 1 µM His6-PchB, 100 nM enzyme; remark: listed apart in the source
# Text: coupled fluorimetric assay with PchB (salicylate formation) on AtICS2 (His6-AtICS2, ICS2)
protein,measurement,setting,value
"AtICS1 (His6-AtICS1, ICS1) (Arabidopsis thaliana) (protein, transit peptide removed (forward primer encodes MNGCDG start), N-terminal His6 tag from pET-28a TEV, no tag cleavage described; E. coli Rosetta DE3 pLysS; ~60 kDa; monomer) MNGCDGDFKTPLGTVETRTMTAVLSPAAATERLISAVSELKSQPPSFSSGVVRLQVPIDQQIGAIDWLQAQNEIQPRCFFSRRSDVGRPDLLLDLANENGNGNGNGTVSSDRNLVSVAGIGSAVFFRDLDPFSHDDWRSIRRFLSSTSPLIRAYGGMRFDPNGKIAVEWEPFGAFYFSVPQVEFNEFGGSSMLAATIAWDDELSWTLENAIEALQETMLQVSSVVMKLRNRSLGVSVLSKNHVPTKGAYFPAVEKALEMINQKSSPLNKVVLARNSRIITDTDIDPIAWLAQLQREGHDAYQFCLQPPGAPAFIGNTPERLFQRTQLGVCSEALAATRPRAASSARDMEIERDLLTSPKDDLEFSIVRENIREKLNGICDRVVVKPQKTVRKLARVQHLYSQLAGRLTKEDDEYKILAALHPTPAVCGLPAEEARLLIKEIESFDRGMYAGPIGFFGGEESEFAVGIRSALVEKGLGALIYAGTGIVAGSDPSSEWNELDLKISQFTKSIEYEATTSLQAIN",Km,[1],34.3 ± 3.7 µM
same,kcat,[1],0.635 ± 0.025 s⁻¹
same,kcat/Km,[1],18500 ± 217 M⁻¹ s⁻¹
"AtICS2 (His6-AtICS2, ICS2) (Arabidopsis thaliana) (protein, transit peptide removed (forward primer encodes MNGCEA start), N-terminal His6 tag from pET-28a TEV, no tag cleavage described; E. coli Rosetta DE3 pLysS; ~60 kDa; monomer) MNGCEADHKAPLGTVETRTLSTVPSPAAATERLITAVSDLKSQPPPFSSGIVRLQVPIEQKIGAIDWLHAQNEILPRSFFSRRSDSGRPDLLQDFSSDNGSSDHNPVSVAGIGSAVFFRDLDPFSHDDWRSIRRFLSSKSPLIRAYGGLRFDPTGKIAVEWEHFGSFYFTVPQVEFDEFGGSSMLAATVAWDNELSWTLENAIEALQETMLQVSSVIMRLRRESLGVIVVSKNHVPSEGAYYPAVNNALEIIKDKHSPLSKVVLARSSRIITDTDIDPIAWLARLQCEGQDAYQFCLQPPGAPAFIGNTPERLFHRKHLGVCSEALAATRPRGDSKVREMEIERDLLTSPKDDLEFSIVRENIREKLKTICDRVVVKPHKSVRKLARVQHLYSQLAGQLKREDDEFNILTALHPTPAVCGCPVEEARLLIKQIESFDRGMYAGPIGFFGGGESEFSVGIRSALVEKGLGALIYAGTGIVSGSNPSSEWNELELKISQFTKSLEHESALQPIN",Km,[2],28.8 ± 6.9 µM
same,kcat,[2],0.283 ± 0.02 s⁻¹
same,kcat/Km,[2],9830 ± 1030 M⁻¹ s⁻¹
